From the Human Domainome abundance scans (Beltran et al. 2025)
± gives the uncertainty stated by the source.

B1: POU domain, class 4, transcription factor 1, residues 266 to 347; numbered along this chain, Q01851 (parent)
chain: RELEAFAERFKQRRIKLGVTQADVGSALANLKIPGVGSLSQSTICRFESLTLSHNNMIALKPILQAWLEEAEGAQREKMNKP

Variants of: B1
Assay: abundance fitness (aPCA) (normalised: wild type 0, dead -1); higher = more abundant; growth selection in yeast, the domain comes from the species named
Settings: Homo sapiens

Variant	abundance fitness
WELEAFAERFKQRRIKLGVTQADVGSALANLKIPGVGSLSQSTICRFESLTLSHNNMIALKPILQAWLEEAEGAQREKMNKP [R1W]	-0.134 ± 0.033
IELEAFAERFKQRRIKLGVTQADVGSALANLKIPGVGSLSQSTICRFESLTLSHNNMIALKPILQAWLEEAEGAQREKMNKP [R1I]	0.039 ± 0.067
DELEAFAERFKQRRIKLGVTQADVGSALANLKIPGVGSLSQSTICRFESLTLSHNNMIALKPILQAWLEEAEGAQREKMNKP [R1D]	0.008 ± 0.066
FELEAFAERFKQRRIKLGVTQADVGSALANLKIPGVGSLSQSTICRFESLTLSHNNMIALKPILQAWLEEAEGAQREKMNKP [R1F]	0.028 ± 0.12
LELEAFAERFKQRRIKLGVTQADVGSALANLKIPGVGSLSQSTICRFESLTLSHNNMIALKPILQAWLEEAEGAQREKMNKP [R1L]	-0.084 ± 0.059
GELEAFAERFKQRRIKLGVTQADVGSALANLKIPGVGSLSQSTICRFESLTLSHNNMIALKPILQAWLEEAEGAQREKMNKP [R1G]	-0.05 ± 0.023
YELEAFAERFKQRRIKLGVTQADVGSALANLKIPGVGSLSQSTICRFESLTLSHNNMIALKPILQAWLEEAEGAQREKMNKP [R1Y]	-0.076 ± 0.085
SELEAFAERFKQRRIKLGVTQADVGSALANLKIPGVGSLSQSTICRFESLTLSHNNMIALKPILQAWLEEAEGAQREKMNKP [R1S]	-0.026 ± 0.033
QELEAFAERFKQRRIKLGVTQADVGSALANLKIPGVGSLSQSTICRFESLTLSHNNMIALKPILQAWLEEAEGAQREKMNKP [R1Q]	-0.325 ± 0.17
NELEAFAERFKQRRIKLGVTQADVGSALANLKIPGVGSLSQSTICRFESLTLSHNNMIALKPILQAWLEEAEGAQREKMNKP [R1N]	0.02 ± 0.05
AELEAFAERFKQRRIKLGVTQADVGSALANLKIPGVGSLSQSTICRFESLTLSHNNMIALKPILQAWLEEAEGAQREKMNKP [R1A]	-0.132 ± 0.042
HELEAFAERFKQRRIKLGVTQADVGSALANLKIPGVGSLSQSTICRFESLTLSHNNMIALKPILQAWLEEAEGAQREKMNKP [R1H]	-0.326 ± 0.18
EELEAFAERFKQRRIKLGVTQADVGSALANLKIPGVGSLSQSTICRFESLTLSHNNMIALKPILQAWLEEAEGAQREKMNKP [R1E]	0.007 ± 0.052
VELEAFAERFKQRRIKLGVTQADVGSALANLKIPGVGSLSQSTICRFESLTLSHNNMIALKPILQAWLEEAEGAQREKMNKP [R1V]	-0.09 ± 0.038
MELEAFAERFKQRRIKLGVTQADVGSALANLKIPGVGSLSQSTICRFESLTLSHNNMIALKPILQAWLEEAEGAQREKMNKP [R1M]	0.004 ± 0.045
TELEAFAERFKQRRIKLGVTQADVGSALANLKIPGVGSLSQSTICRFESLTLSHNNMIALKPILQAWLEEAEGAQREKMNKP [R1T]	-0.011 ± 0.04
RALEAFAERFKQRRIKLGVTQADVGSALANLKIPGVGSLSQSTICRFESLTLSHNNMIALKPILQAWLEEAEGAQREKMNKP [E2A]	-0.267 ± 0.028
RFLEAFAERFKQRRIKLGVTQADVGSALANLKIPGVGSLSQSTICRFESLTLSHNNMIALKPILQAWLEEAEGAQREKMNKP [E2F]	-0.245 ± 0.07

Variant	abundance fitness
RPLEAFAERFKQRRIKLGVTQADVGSALANLKIPGVGSLSQSTICRFESLTLSHNNMIALKPILQAWLEEAEGAQREKMNKP [E2P]	-0.437 ± 0.04
RRLEAFAERFKQRRIKLGVTQADVGSALANLKIPGVGSLSQSTICRFESLTLSHNNMIALKPILQAWLEEAEGAQREKMNKP [E2R]	-0.266 ± 0.026
RKLEAFAERFKQRRIKLGVTQADVGSALANLKIPGVGSLSQSTICRFESLTLSHNNMIALKPILQAWLEEAEGAQREKMNKP [E2K]	-0.069 ± 0.04
RYLEAFAERFKQRRIKLGVTQADVGSALANLKIPGVGSLSQSTICRFESLTLSHNNMIALKPILQAWLEEAEGAQREKMNKP [E2Y]	-0.236 ± 0.055
RTLEAFAERFKQRRIKLGVTQADVGSALANLKIPGVGSLSQSTICRFESLTLSHNNMIALKPILQAWLEEAEGAQREKMNKP [E2T]	-0.195 ± 0.039
RVLEAFAERFKQRRIKLGVTQADVGSALANLKIPGVGSLSQSTICRFESLTLSHNNMIALKPILQAWLEEAEGAQREKMNKP [E2V]	-0.345 ± 0.029
RWLEAFAERFKQRRIKLGVTQADVGSALANLKIPGVGSLSQSTICRFESLTLSHNNMIALKPILQAWLEEAEGAQREKMNKP [E2W]	-0.508 ± 0.038
RGLEAFAERFKQRRIKLGVTQADVGSALANLKIPGVGSLSQSTICRFESLTLSHNNMIALKPILQAWLEEAEGAQREKMNKP [E2G]	-0.102 ± 0.023
RSLEAFAERFKQRRIKLGVTQADVGSALANLKIPGVGSLSQSTICRFESLTLSHNNMIALKPILQAWLEEAEGAQREKMNKP [E2S]	-0.139 ± 0.03
RMLEAFAERFKQRRIKLGVTQADVGSALANLKIPGVGSLSQSTICRFESLTLSHNNMIALKPILQAWLEEAEGAQREKMNKP [E2M]	-0.17 ± 0.036
RHLEAFAERFKQRRIKLGVTQADVGSALANLKIPGVGSLSQSTICRFESLTLSHNNMIALKPILQAWLEEAEGAQREKMNKP [E2H]	-0.194 ± 0.048
RCLEAFAERFKQRRIKLGVTQADVGSALANLKIPGVGSLSQSTICRFESLTLSHNNMIALKPILQAWLEEAEGAQREKMNKP [E2C]	-0.306 ± 0.046
RLLEAFAERFKQRRIKLGVTQADVGSALANLKIPGVGSLSQSTICRFESLTLSHNNMIALKPILQAWLEEAEGAQREKMNKP [E2L]	-0.332 ± 0.032
RNLEAFAERFKQRRIKLGVTQADVGSALANLKIPGVGSLSQSTICRFESLTLSHNNMIALKPILQAWLEEAEGAQREKMNKP [E2N]	0.025 ± 0.049
RILEAFAERFKQRRIKLGVTQADVGSALANLKIPGVGSLSQSTICRFESLTLSHNNMIALKPILQAWLEEAEGAQREKMNKP [E2I]	-0.266 ± 0.062
RDLEAFAERFKQRRIKLGVTQADVGSALANLKIPGVGSLSQSTICRFESLTLSHNNMIALKPILQAWLEEAEGAQREKMNKP [E2D]	0.023 ± 0.039
RQLEAFAERFKQRRIKLGVTQADVGSALANLKIPGVGSLSQSTICRFESLTLSHNNMIALKPILQAWLEEAEGAQREKMNKP [E2Q]	-0.16 ± 0.033
